Assay [1] concerns the target T1, human TREM2 (human) (UniProt Q9NZC2).
T1 sequence (looked up): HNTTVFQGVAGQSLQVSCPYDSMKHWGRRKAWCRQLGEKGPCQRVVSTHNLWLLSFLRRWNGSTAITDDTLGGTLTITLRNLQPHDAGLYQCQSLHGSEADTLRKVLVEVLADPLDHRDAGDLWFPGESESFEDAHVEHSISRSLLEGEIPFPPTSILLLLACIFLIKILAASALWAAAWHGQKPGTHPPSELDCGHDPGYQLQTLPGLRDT
Kind of assay: 2nd screen, 10 nM Ab.

In assay [2] the target is T1, human TREM2 (human). The assay can be described thus: 1st screen, 10 nM Ab.
In assay [3] the target is T1, human TREM2 (human). The assay can be described thus: 2nd screen, 2 nM Ab.

B1: 6E7 variant V1 (antibody, V domains shown)
VH: EVQLVQSGAEVKKPGESLKISCKGSGYSFTSSWIAWVRQMPGKGLEWMGIIYPGDSDTRYSPSFQGQVTISADKSISTAYLQWSSLKASDTAMYFCARSRTFYYDSSDYFDYWGQGTLVTVSS
VL: DIQMTQSPSSVSASVGDRVTITCRASQGISSWLAWYQQKPGKAPKLLIYAASSLTNGVPSRFSGSGSGTDFTLTISSLQPEDFATYFCQQADSYPRTFGQGTKLEIK
Turning to B1, the values for the Binding Signal (fold over 6E7 parental antibody) in assay [1], in assay [2] and in assay [3] were 1.92 fold, 1.68 fold and 1.29 fold, respectively.

B2: 6E7 variant V77 (antibody, V domains shown)
VH: EVQLVQSGAEVKKPGESLKISCKGSGYSFTSYWIAWVRQMPGKGLEWMGIIYPGDSDTRYSPSFQGQVTISADKSISTAYLQWSSLKASDTAMYFCARQRTFYYDSSDYFDYWGQGTLVTVSS
VL: DIQMTQSPSSVSASVGDRVTITCRASQGISSWLAWYQQKPGKAPKLLIYAASSRQNGVPSRFSGSGSGTDFTLTISSLQPEDFATYFCQQADSFPRTFGQGTKLEIK
B2: the Binding Signal (fold over 6E7 parental antibody) was found to be 1.38 fold in assay [1], 1.43 fold in assay [2] and 0.83 fold in assay [3].

B3: 6E7 variant V73 (antibody, V domains shown)
VH: EVQLVQSGAEVKKPGESLKISCKGSGYSFGSYWIAWVRQMPGKGLEWMGIIYPGDSDTRYSPGFQGQVTISADKSISTAYLQWSSLKASDTAMYFCARGRTFYYDSSDYFDYWGQGTLVTVSS
VL: DIQMTQSPSSVSASVGDRVTITCRASQGISSWLAWYQQKPGKAPKLLIYAASSRQNGVPSRFSGSGSGTDFTLTISSLQPEDFATYFCQQADSYPRTFGQGTKLEIK
Take B3: the Binding Signal (fold over 6E7 parental antibody) in assay [1] was 5.44 fold; in assay [2] it was 5.12 fold; in assay [3] it was 4.17 fold.

B4: 6E7 variant V86 (antibody, V domains shown)
VH: EVQLVQSGAEVKKPGESLKISCKGSGYSFGSYWLAWVRQMPGKGLEWMGIIYPGDSDTRYSPSFEGQVTISADKSISTAYLQWSSLKASDTAMYFCARSRTFYYDSSDYFDYWGQGTLVTVSS
VL: DIQMTQSPSSVSASVGDRVTITCRASQGISSWLAWYQQKPGKAPKLLIYAASSRQNGVPSRFSGSGSGTDFTLTISSLQPEDFATYFCQQADSFPRTFGQGTKLEIK
In the case of B4, the Binding Signal (fold over 6E7 parental antibody) in assay [1] came out at 5.02 fold; in assay [2] it was 4.8 fold; in assay [3], 5.17 fold.

B5: 6E7 variant V64 (antibody, V domains shown)
VH: EVQLVQSGAEVKKPGESLKISCKGSGYSFQSYWIAWVRQMPGKGLEWMGIIYPGDSDTRYSPSFQGQVTISADKSISTAYLQWSSLKASDTAMYFCARGRTFYYDSSDYFDYWGQGTLVTVSS
VL: DIQMTQSPSSVSASVGDRVTITCRASQGISSWLAWYQQKPGKAPKLLIYAASSLANGVPSRFSGSGSGTDFTLTISSLQPEDFATYFCQQADSYPRTFGQGTKLEIK
Consider B5, for which the Binding Signal (fold over 6E7 parental antibody) in assay [1] was determined as 5.48 fold; in assay [2], 5.41 fold; in assay [3] it was 4.88 fold.

B6: 6E7 variant V76 (antibody, V domains shown)
VH: EVQLVQSGAEVKKPGESLKISCKGSGYSFGSYWIAWVRQMPGKGLEWMGIIYPGDSDTRYSPEFQGQVTISADKSISTAYLQWSSLKASDTAMYFCARQRTFYYDSSDYSDYWGQGTLVTVSS
VL: DIQMTQSPSSVSASVGDRVTITCRASQGISSWLAWYQQKPGKAPKLLIYAASSLQKGVPSRFSGSGSGRDFTLTISSLQPEDFATYFCQQADSFPRTFGQGTKLEIK
For the molecule B6, the Binding Signal (fold over 6E7 parental antibody) stood at 4.93 fold in assay [1], 4.57 fold in assay [2] and 4.34 fold in assay [3].

B7: 6E7 variant V84 (antibody, V domains shown)
VH: EVQLVQSGAEVKKPGESLKISCKGSGYGFTSYWIAWVRQMPGKGLEWMGIIYPGDSDTRYSPSFQGQVTISADKSISTAYLQWSSLKASDTAMYFCARQRTFYYDSSDYSDYWGQGTLVTVSS
VL: DIQMTQSPSSVSASVGDRVTITCRASQGISSWLAWYQQKPGKAPKLLIYGASSLQNGVPSRFSGSGSGTDFTLTISSLQPEDFATYFCQQADSFPRTFGQGTKLEIK
B7: the Binding Signal (fold over 6E7 parental antibody) in assay [1] came out at 1.62 fold; in assay [2], 1.44 fold; in assay [3], 1.45 fold.

B8: 6E7 variant V65 (antibody, V domains shown)
VH: EVQLVQSGAEVKKPGESLKISCKGSGYSFTSYWIAWVRQMPGKGLEWMGIIYPGDSDTRYSPSFQGQVTISADKSISTAYLQWSSLKASDTAMYFCARSRTFYYDSSDYFDYWGQGTLVTVSS
VL: DIQMTQSPSSVSASVGDRVTITCRASQGISSWLAWYQQKPGKAPKLLIYAASSLQNGVPSRFSGSGSGTDFTLTISSLQPEDFATYFCQQADSFPRTFGQGTKLEIK
Consider B8, for which the values for the Binding Signal (fold over 6E7 parental antibody) in assay [1], in assay [2] and in assay [3] were 2.75 fold, 2.05 fold and 1.29 fold, respectively.

B9: 6E7 variant V62 (antibody, V domains shown)
VH: EVQLVQSGAEVKKPGESLKISCKGSGYSFGSYWIAWVRQMPGKGLEWMGIIYPGDSDTRYAPSFQGQVTISADKSISTAYLQWSSLKASDTAMYFCARQRTFYYDSSGYFDYWGQGTLVTVSS
VL: DIQMTQSPSSVSASVGDRVTITCRASQGISSWLAWYQQKPGKAPKLLIYAASSLQRGVPSRFSGSGSGTDFTLTISSLQPEDFATYFCGQADSFPRTFGQGTKLEIK
Consider B9, for which the Binding Signal (fold over 6E7 parental antibody) in assay [1] is 2.89 fold; in assay [2], 2.49 fold; in assay [3] it was 1.87 fold.

B10: 6E7 variant V75 (antibody, V domains shown)
VH: EVQLVQSGAEVKKPGESLKISCKGSGYSFTSYWIAWVRQMPGKGLEWMGIIYPGDSDTRYSPSFQGQVTISADKSISTAYLQWSSLKASDTAMYFCARGRTFYYDSSDYFDYWGQGTLVTVSS
VL: DIQMTQSPSSVSASVGDRVTITCRASQGISSWLAWYQQKPGKAPKLLIYAASSLQAGVPSRFSGSGSGTDFTLTISSLQPEDFATYFCQQADSYPRTFGQGTKLEIK
As to B10, the Binding Signal (fold over 6E7 parental antibody) in assay [1] was 4.52 fold; in assay [2], 4.64 fold; in assay [3] it was 3.74 fold.

B11: 6E7 variant V63 (antibody, V domains shown)
VH: EVQLVQSGAEVKKPGESLKISCKGSGYSFRSYWIAWVRQMPGKGLEWMGIIYPGDSDTRYSPSFQGQVTISADKSISTAYLQWSSLKASDTAMYFCARSRTFYYDSSDYFDYWGQGTLVTVSS
VL: DIQMTQSPSSVSASVGDRVTITCRASQGISSWLAWYQQKPGKAPKLLIYAASSLQRGVPSRFSGSGSGTDFTLTISSLQPEDFATYFCQQADRFPRTFGQGTKLEIK
On to B11, for which the Binding Signal (fold over 6E7 parental antibody) worked out at 3.71 fold in assay [1], 3.76 fold in assay [2] and 4.91 fold in assay [3].

B12: 6E7 variant V85 (antibody, V domains shown)
VH: EVQLVQSGAEVKKPGESLKISCKGSGYSFRSYWIAWVRQMPGKGLEWMGTIYPGDSDTRYSPSFQGQVTISADKSISTAYLQWSSLKASDTAMYFCARSRTFYYDSSDYFDYWGQGTLVTVSS
VL: DIQMTQSPSSVSASVGDRVTITCRASQGISSWLAWYQQKPGKAPKLLIYAASSRQNGVPSRFSGSGSGTDFTLTISSLQPEDFATYFCQQADSFPRTFGQGTKLEIK
Regarding B12, the Binding Signal (fold over 6E7 parental antibody) in assay [1] came out at 5.37 fold; in assay [2], 5.41 fold; in assay [3], 5.41 fold.

B13: 6E7 variant V74 (antibody, V domains shown)
VH: EVQLVQSGAEVKKPGESLKISCKGSGYSFASYWIAWVRQMPGKGLEWMGIIYPGDSDVRYSPSFQGQVTISADKSISTAYLQWSSLKASDTAMYFCARGRTFYYDSSDYFDYWGQGTLVTVSS
VL: DIQMTQSPSSVSASVGDRVTITCRASQGISSWLAWYQQKPGKAPKLLIYAASSLQLGVPSRFSGSGSGTDFTLTISSLQPEDFATYFCQQADSFPRTFGQGTKLEIK
Consider B13, for which the figures for the Binding Signal (fold over 6E7 parental antibody) in assay [1], in assay [2] and in assay [3] were 4.01 fold, 3.94 fold and 2.54 fold, respectively.

B14: 6E7 variant V3 (antibody, V domains shown)
VH: EVQLVQSGAEVKKPGESLKISCKGSGYSFASYWIAWVRQMPGKGLEWMGIIYPGDSDTRYSPSFQDQVTISADKSISTAYLQWSSLKASDTAMYFCARGRTFYYDSSDYFDYWGQGTLVTVSS
VL: DIQMTQSPSSVSASVGDRVTITCRASQGISSWLAWYQQKPGKAPKLLIYAASSRQNGVPSRFSGSGSGTDFTLTISSLQPEDFATYFCQQADRFPRTFGQGTKLEIK
Turning to B14, the Binding Signal (fold over 6E7 parental antibody) in assay [1] was found to be 2.24 fold; in assay [2] it was 1.97 fold; in assay [3], 1.95 fold.

B15: 6E7 variant V87 (antibody, V domains shown)
VH: EVQLVQSGAEVKKPGESLKISCKGSGYSFRSYWIAWVRQMPGKGLEWMGIIYPGDSDVRYSPDFQGQVTISADKSISTAYLQWSSLKASDTAMYFCARSRTFYYDSSDYFDYWGQGTLVTVSS
VL: DIQMTQSPSSVSASVGDRVTITCRASQGISSWLAWYQQKPGKAPKLLIYAASSLQWGVPSRFSGSGSGTDFTLTISSLQPEDFATYFCQQADSFPRTFGQGTKLEIK
For B15, the Binding Signal (fold over 6E7 parental antibody) worked out at 3.93 fold in assay [1], 3.84 fold in assay [2] and 4.86 fold in assay [3].

B16: 6E7 variant V2 (antibody, V domains shown)
VH: EVQLVQSGAEVKKPGESLKISCKGSGSSFTSYWIAWVRQMPGKGLEWMGIIYPGDGDTRYSPSFQGQVTISADKSISTAYLQWSSLKASDTAMYFCARSRTFYYDSSDYFDYWGQGTLVTVSS
VL: DIQMTQSPSSVSASVGDRVTITCRASQGISSWLAWYQQKPGKAPKLLIYAASSRQNGVPSRFSGSGSGTDFTLTISSLQPEDFATYFCQQADRFPRTFGQGTKLEIK
Consider B16, for which the Binding Signal (fold over 6E7 parental antibody) in assay [1] was 2.9 fold; in assay [2], 2.55 fold; in assay [3] it was 2.23 fold.

Source of the values: patent publication US20260250381A1.
